Results reported in patent US20220411487A1 (Regeneron, published 2022).
Positions count from the first letter of the chain named. In names and notes the source's numbering stands.

T1: full length human TMPRSS6 on HEK293 cells (HEK293/hTMPRSS6) (human, UniProt Q8IU80 10-811)
T1 sequence (looked up): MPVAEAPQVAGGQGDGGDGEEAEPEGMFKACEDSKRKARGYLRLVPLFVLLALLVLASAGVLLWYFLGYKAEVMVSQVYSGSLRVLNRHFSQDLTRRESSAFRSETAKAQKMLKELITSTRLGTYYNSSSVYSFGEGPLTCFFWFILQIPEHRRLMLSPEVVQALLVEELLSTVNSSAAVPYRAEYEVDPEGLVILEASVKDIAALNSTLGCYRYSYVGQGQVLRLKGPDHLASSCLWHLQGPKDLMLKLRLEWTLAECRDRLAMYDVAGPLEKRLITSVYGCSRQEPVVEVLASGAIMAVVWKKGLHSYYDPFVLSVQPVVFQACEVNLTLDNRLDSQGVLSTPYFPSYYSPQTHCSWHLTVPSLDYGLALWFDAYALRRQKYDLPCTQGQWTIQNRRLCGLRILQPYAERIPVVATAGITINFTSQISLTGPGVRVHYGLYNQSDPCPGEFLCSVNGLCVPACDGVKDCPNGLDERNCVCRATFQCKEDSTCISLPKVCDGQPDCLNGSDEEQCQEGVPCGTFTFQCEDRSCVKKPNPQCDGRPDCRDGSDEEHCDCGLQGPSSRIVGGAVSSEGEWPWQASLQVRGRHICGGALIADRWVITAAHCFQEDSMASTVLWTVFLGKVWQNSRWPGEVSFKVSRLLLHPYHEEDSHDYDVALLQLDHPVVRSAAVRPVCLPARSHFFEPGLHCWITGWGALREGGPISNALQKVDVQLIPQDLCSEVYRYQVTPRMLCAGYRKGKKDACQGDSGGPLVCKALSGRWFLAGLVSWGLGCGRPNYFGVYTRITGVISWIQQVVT

T2: full length cynomolgous monkey TMPRSS6 on HEK293 cells (HEK293/mfTMPRSS6) (cynomolgous monkey/Macaca fascicularis, UniProt Q8IU80 10-811 (human entry))
T2 chain: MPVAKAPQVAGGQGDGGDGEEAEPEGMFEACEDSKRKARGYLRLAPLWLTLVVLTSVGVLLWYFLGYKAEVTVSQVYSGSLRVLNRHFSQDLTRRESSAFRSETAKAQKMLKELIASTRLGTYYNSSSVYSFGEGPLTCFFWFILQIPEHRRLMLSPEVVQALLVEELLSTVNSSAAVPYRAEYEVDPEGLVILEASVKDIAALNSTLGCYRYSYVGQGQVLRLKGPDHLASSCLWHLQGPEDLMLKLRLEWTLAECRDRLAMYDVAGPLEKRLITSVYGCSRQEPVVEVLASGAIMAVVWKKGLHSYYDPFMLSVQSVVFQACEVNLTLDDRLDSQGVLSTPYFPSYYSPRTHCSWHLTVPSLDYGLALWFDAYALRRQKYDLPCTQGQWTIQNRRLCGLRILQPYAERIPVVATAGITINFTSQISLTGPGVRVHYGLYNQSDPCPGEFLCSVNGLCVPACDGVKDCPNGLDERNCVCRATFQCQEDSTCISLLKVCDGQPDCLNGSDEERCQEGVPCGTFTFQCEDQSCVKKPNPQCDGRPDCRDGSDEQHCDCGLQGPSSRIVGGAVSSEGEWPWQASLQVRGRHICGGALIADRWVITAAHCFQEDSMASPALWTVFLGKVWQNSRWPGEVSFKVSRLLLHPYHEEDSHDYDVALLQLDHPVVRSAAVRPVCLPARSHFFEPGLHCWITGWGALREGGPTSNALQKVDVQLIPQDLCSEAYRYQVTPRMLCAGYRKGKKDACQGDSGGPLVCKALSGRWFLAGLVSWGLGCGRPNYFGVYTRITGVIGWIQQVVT

B1: REGN7999 (antibody, human IgG4 S228P, kappa, V domains shown)
VH: EVQLVESGGGLVQPGGSLRLSCAASGFTFSSYAMTWVRQAPGKGLEWVSAISGSDTSTYYADSVKGRFTISRDNSKNTLFLQMNSLRAEDTAVYYCAKHQDYDFSYYYSAMDVWGQGTTVTVSS
VL: DIQMTQSPSSLSASVGDRVIITCRASQDFNSWLAWYQQKPGKAPKLLIYAASSLQSGVPSRFSGSGSGTDFTLTISSLQPEDFATYYCQQTDSFPFTFGPGTKVDIKR
notes: fully human; human IgG4 Fc with hinge S108P; also called mAb41450
B2: REGN7969 (antibody, human IgG4 S228P, kappa, V domains shown)
VH: QVQLVESGGGVVQPGRSLRLSCAASGFTFNNYGMHWVRQAPGKGLEWVAIISYDGSNEYYSDSVKGRFTISRDNSKNTLYLQMNSLRAEDTAVYYCARDQDYGGNLFHYWGQGTLVTVSS
VL: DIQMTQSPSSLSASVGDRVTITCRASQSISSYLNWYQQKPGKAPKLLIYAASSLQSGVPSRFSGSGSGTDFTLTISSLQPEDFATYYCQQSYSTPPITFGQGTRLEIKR
notes: fully human; human IgG4 Fc with hinge S108P; also called mAb37746
B3: REGN7971 (antibody, human IgG4 S228P, kappa, V domains shown)
VH: B2 VH with N30S, N31T, E58D, S61L, S85N, R98K, D101G, H108A, Y109S
VL: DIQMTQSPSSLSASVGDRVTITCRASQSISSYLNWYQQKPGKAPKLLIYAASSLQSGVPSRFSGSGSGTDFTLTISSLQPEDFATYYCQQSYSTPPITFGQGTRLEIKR
notes: fully human; human IgG4 Fc with hinge S108P; also called mAb37763
B4: REGN7974 (antibody, human IgG4 S228P, kappa, V domains shown)
VH: EVQLVESGGGLVQPGRSLRLSCIASGFNFGDYGMSWVRQAPGKGLEWVGFIRSKAYGGTTEYAASVKGRFTISRDDSKSIAYLQMNSLKTEDAAMYYCSRDYYDILTGYYGDYWGQGTLVTVSS
VL: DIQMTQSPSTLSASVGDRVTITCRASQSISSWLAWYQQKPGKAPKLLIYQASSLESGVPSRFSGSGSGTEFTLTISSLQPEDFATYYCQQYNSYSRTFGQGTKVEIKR
notes: fully human; human IgG4 Fc with hinge S108P; also called mAb41422
B5: REGN7977 (antibody, V domains shown)
VH: EVQLVESGGGLVKPGGSLRVSCAASGVTFSNVWMSWVRQVPGKGLEWVGRIKSKTDGGTTDYAAPVKGRFTISKDDSKNTLFLQMNSLKTEDTAVYYCTTETGDFWSGYYPRFQHWGQGTLVTVSS
VL: DIQMTQSPSSLSASVGDRVTITCRASQYISTYLNWYQQKPGKAPSLLIYAASSLQSGVPSRFSGSGSGTDFTLTISSLQPEDFASYSCQQSYSTPPYTFGQGTKLEIKR
notes: fully human; human IgG4 Fc with hinge S108P; also called mAb41465
B6: REGN8023 (antibody, human IgG4 S228P, kappa, V domains shown)
VH: EVQLVESGGGLVKPGGSLRISCAASGFIFVDYAMHWVRQAPGKGLEWVSGISWNSGSIGYADSVKGRFTISRDNAKKSLYLQMSGLRPEDTALYYCVKSGFYYVRSYFDNWGQGTLVTVSS
VL: DIVMTQSPLSLPVTPGEPASISCRSSQSLLDSDDGNTYLDWYLRKPGQSPQLLIYTLSYRASGVPDRFSGSGSGTDFTLKISRVEADDVGVYYCMQRIEFPLTFGGGTKVEIKR
notes: fully human; human IgG4 Fc with hinge S108P; also called mAb37699

Target: T1, full length human TMPRSS6 on HEK293 …
Assay: cell-based or functional assay

% inhibition, HEK293 bioassay, 30 min pre-incubation 25 C	IC50, HEK293 bioassay, 30 min pre-incubation 25 C	Binder
86%	3 nM	B1
87%	1.9 nM	B2
86%	0.97 nM	B3
86%	5.1 nM	B4
86%	3.6 nM	B5
90%	0.36 nM	B6

Target: T2, full length cynomolgous monkey TMPRSS6 …
Assay: cell-based or functional assay

% inhibition, HEK293 bioassay, 30 min pre-incubation 25 C	IC50, HEK293 bioassay, 30 min pre-incubation 25 C	Binder
90%	6.5 nM	B1
87%	8.8 nM	B2
87%	3.1 nM	B3
81%	30 nM	B4
87%	8.1 nM	B5
94%	0.66 nM	B6

Target: T1, full length human TMPRSS6 on HEK293 …
Assay: flow cytometry, HEK293 cells expressing target
Procedure: (§1) To assess the binding of anti-TMPRSS6 antibodies of the present disclosure to the receptor expressed on the cell surface, antibodies (including an IgG subclass control) were serially diluted in assay buffer (PBS without Ca⁺⁺ and Mg⁺⁺ containing 2% FBS) from 375 nM to 22.9 pM (plus a sample containing assay buffer alone without test molecule) and incubated with 0.5×10⁶ cells/well at 4° C. for 30 minutes in assay buffer. […] Cells were fixed using BD CytoFix™ (Becton Dickinson, #554655) and analyzed on either the IQue® or IQue®Plus Flow Cytometers (Intellicyt®). Unstained and secondary antibody alone controls were also tested for all cell lines. The results were analyzed using ForeCyt® (IntelliCyt®) software to determine the geometric means of fluorescence for viable cells and binding ratio was calculated by normalizing the geometric mean value of the test condition by the geometric mean value of the corresponding unstained cells.

EC50	Max. Fold Binding	Binder
2.2 nM	50 fold over unstained control	B1
0.67 nM	52 fold over unstained control	B2
0.97 nM	66 fold over unstained control	B3
2.4 nM	54 fold over unstained control	B4
1.9 nM	69 fold over unstained control	B5
0.7 nM	47 fold over unstained control	B6

Target: T2, full length cynomolgous monkey TMPRSS6 …
Assay: flow cytometry, HEK293 cells expressing target
Procedure: as §1

EC50	Max. Fold Binding	Binder
2 nM	79 fold over unstained control	B1
1.2 nM	50 fold over unstained control	B2
1.5 nM	75 fold over unstained control	B3
3.6 nM	50 fold over unstained control	B4
2.4 nM	78 fold over unstained control	B5
0.94 nM	52 fold over unstained control	B6
